Experimental data as given in a protein production outcome set (Wang et al. 2014).

Assay: label from the status in PepcDB records

Sequence | protein production
MTPNRRPRPSGAEVRRKIRGPDGLALLPSGRVSWLPDDFVHPVLVPLPGGDHHLRPIRETDTPLDYPAVMGSRERLWTVYGPAWGWPAATMTYEADRADLLRHEKEIAAHQSFNYALFDTAETALLGCVYIDPPERAGADGDISWWVVDELVDSTVERALDALVPQWIAADWPFERPRFIGREISWSDYLALPGIPTVP | failed
MTAAVARALTLWGLDGASYELAAQRENEVWKVSDGTRHYALRFHRPAYRSEAELTSELLWVEMLGQAGMQVPQPVRQPDGAVLGRIEGRHVSLLDWLGGRPLGKMGQLAPDLDAEAVGRMIGAQMARMHDLSDRWTPPAGFQRPDWRRSGLLGADPLWGRFWEHPDLDPAQRQLMIATRERALACFEDFAPGADQGLIHADLVVENVLVDHDRVAFIDFDDGAWGYRDFDLATVLVKFIGQPDYDRLRAGLCAGYDARRRVEPGTLDFMLLLRALTYPGWIMSRLDEPGGRQRSARMLDTALRLARDFMEERQR | failed
MDVKQTLEKAIALRQNKRYQESNAILVTLCKEHAHDPQILYQCGWSFDVLGLEAQAVPYYEKAIASGLQGKDLAECYLGLGSTFRTLGEYRKAEAVLANGVKQFPNHQALRVFYAMVLYNLGRYEQGVELLLKIIAETSDDETIQSYKQAILFYADKLDETWKALEHHHHHH | not failed
MKSASGQEKSIVVRRFDPARFVALVRKESLQAMRDPSTLLIALVLPLILLFLFAYAVSLDVRHVRIGVVLESPGATARTLADAFSGTHYLDVTFAYDRREVAGKLIAGELRGYVVIPQNFERHFADTGSPLVQIITDGSQPNTANFVANYAQGVVQTWMASLTETMPMPAVQLEPRYWFNPELASRRALVPGAIAIIMTIIGTLLTALVVAREWERGTMEAILSTPASVLEILVGKLLPYFVLGMLSTLIAAALAVFLFNVPLRGSLFALLVLSAVFMMPALGQGLLISSLARNQFLASQLALFSGYLPAFMLSGFLFEIDAMPALIRAITWLIPARYFVSSLKTIFLAGDVWSVFLPDLLGMATIGLIFFLIAQRYTRKSLE | failed
MQIIEGKLQLQGNERVAILTSRFNHIITDRLQEGAMDCFKRHGGDEDLLDIVLVPGAYELPFILDKLLESEKYDGVCVLGAIIRGGTPHFDYVSAEATKGIAHAMLKYSMPVSFGVLTTDNIEQAIERAGSKAGNKGFEAMSTLIELLSLCQTLKG | failed
MPMSQSTFTILLGGELSLTERLRDAIEDSRFIAADGGMRHAAALGITPELWVGDFDSTPADLADAFPDVPKQPYPAAKAATDGEIAVAEAIARGARRLILAGALGGERSDHALQHLLSAVSLAEEGFDLLLTSGKEEAVPLVAGTIELDLPKGSLFSVPGFSELRGLAIENARYPLADFHLPFGSSRTISNVAEGKVRFSLRSGRAIVLARPYDLSGV | failed
MLAGHLFAGVGEDVRLFKGITMTYGHNIELGDNAVVHDGVHLDDRGELVVGARASVSNGAHLYTHDHDVVDQTDVTNYRTEIGADARVTQGALVRAGVRVGENALVGSRSVVQGDVPAHHIAVGSPAESVRVKPGWLEHHHHHH | failed
MTKTSSGLKIMFRKIKLEVVRMDLSTIFASLLGLFLSLLTTGVYRYYSKPKIHKTVGVVILNPDKVDAKKIPPNLPEGLRRVTNSLEQELVLKLKKDQQKKAMLLIKISIIGIIISTIGLILGQ | failed
MSLAARLIRSSRSNTFGIITDYVSTTPYSVDIVRGIQDWANANGKTILIANTGGSSEREVEIWKMFQSHRIDGVLYVTMYRRIVDPESGDVSIPTVMINCRPQTRELLPSIEPDDYQGARDLTRYLLERGHRRIGYIRLNPILLGAELRLDAFRRTTSEFGLTENDLSISLGMDGPVGAENNYVFAAATEMLKQDDRPTAIMSGNDEMAIQIYIAAMALGLRIPQDVSIVGFDDFRTVTMALKPELTTAALPYYDLGREGAKWLNDLIAGEKIYPGSRVVSCKLVERSSAAFGEGHHHHHH | not failed
AHSSLGAPVHLWGTEEVAAWLEHLSLCEYKDIFTRHDIRGSELLHLERRDLKDLGVTKVGHMKRILCGIKELSRSAPAVEA | failed
MSKTLKEITDQKNELKKFFENFVLNLEKTEIFSEIQKNLTDEVLFVGCGSSYNLALTISYYFERVLKIRTKAIPAGEVAFQKIPDLEERGLAFLFSRTGNTTEVLLANDVLKKRNHRTIGITIEEESRLAKESDLPLVFPVREEAIVMTKSFSMILLSLMFLADKIAGNSTERFSELVGYSPEFFDISWKVIEKIDLKEHDHFVFLGMSEFFGVSLESALKCIEMSLTFSEAYSTLEYRHGPKALVKKGTLVFMQKVSGMDEQEKRLRKELESLGATVLEVGEGGDIPVSNDWKSAFLRTVPAQILGYQKAISRGISPDKPPHLEKTVVL | not failed
LNDALLLMEANIEDPLTTDEIAGLVGVSRRQLERLFRQYLGAMPSKYYLNLRLLKARTQLQRTSKSVVQVSLACGFSSAAHFSNAYRERFGVTPREDRRA | not failed
MGNKRFRSDNNAGKPTSVEATRIWATKVIEDFRASGNEVYTFEHNLSNNERGVIHQMCRKMGIQSKSSGRGEQRRLSIFKSRHKNGNKNEANEKSNKEKLKCVSFPPGADVILQELFTHYPPCDGDTAATSFTKYSGNKGKQGQWKDDFFRKPQISSEEILEKVASLSSRLKKDKALKEITKLRSKLPITSFKDAITSAVESNQVL | failed
KPQEGIGARCRRALKDLPLTNLSRLLQCELAEGKALRWGADSLEPAAVVGLNSLGSLVWAPGQPSRWPVPLLLLGGTLDLITPPLDEQLGVFSALASHPSSRVVVVEGASHFSPIRVGEPMA | failed
MSLILLGALSLASSTFAQTWIWYPGDYEIWLGNQMNNRRTERGAFFPPFWKTDSHYVVVEFSKVLNLSEPEEVFIAAEGTYNVKLDGKLQFGMPETLLLPAGKHSLNIKVWNQATPPTIYVKGKTVNSDSSWRVTYEDKEWIDESGKASDTSATIYMDAGCWNFDGATQRPSQFSLMREPQQPVAKTEQPEGGILYDFGKETFGFITLKNLSGKGKIDLYYGESPEEAKDKAYCETLDKLLLEPGQITDLAIRSTSPLHHSDNEYTLENSKAFRYVYITHEPEVQIGEVSMQYEYLPEEYRGNFRCNDEELNCIWEVGAYTMHLTTREFFIDGIKRDRWVWSGDAIQSYLMNYYLFFDSESVKRTIWLLRGKDPVTSHSNTIMDYTFYWFLSVYDYYMYSGDRHFVNQLYPRMQTMMDYVLGRTNKNGMVEGMSGDWVFVDWADGYLDKKGELSFEQVLFCRSLETMALCADLVGDKDGQQKYEKLASALKAKLEPTFWNNQKQAFVHNCVDGRQSDAVTRYANMFSVFFDYLNADKQQAIKQSVLLNDEILKITTPYMRFYELEALCALGEQETVMKEMKAYWGGMLKAGATSFWEKYNPEESGTQHLAMYGRPYGKSLCHAWGASPIYLLGKYYLGVKPTKEGYKEFAVSPVLGGLKWMEGTVPTPNGDIHVYMDNKTIKVKATEGKGYLTIQSRRQPKANMGTVEKVSEGVWRLWIDSPEERIVTYRLEGHHHHHH | not failed
MKKFLSFISFATIVSLVLSVFAKPYTEILRFKTTQQIAPRTYYEKYELLTDEGFVDINCIKLDLIDGGFDFDVLKSKVANTGDFVYNMVSSQIDKNPIAAINANFFYTNTKTDYNKIWPIGISVSGGKILSSPNNKQNTFPAFVYTTSNEILFDYINGLLYKLVNLDSGYEFKIAHVNKFTGDLTYPILFTGDYVQKTIGNKYKGIVELIIKDGIIKDIREEKQTVALDKNEYLLVATGNYAKNLKANFKVGDKVSLKIDLSIPLEKIKAAASGNTFLLKDGKIPSFTHEIAGRHPRSAIGIDKTGRYLYLVAVDGRNGKSIGLSQGELASFLQSIDVWTAINLDGGYSTQLIAKDNDGKFKAFYNIGETRKVFDSIAAFYKYRDDKIATFYIDCPDRVFAGEEYPIKVYAKDRFYNTITYDAVYLKVYQDAYEIDIKDGTFIPYKDGVVTISCVYEDVYQKAFAQKKISVYKPEILTTNKKQLYLLPGESARLRFYIKDKLGHFKEIDPRKVQAEKNPAFEFKDGSFIAKSNFRGFVTFSYKDLKCSIPVGIGETLQLLRSFDYLALSWPKGVSMFLSSKNKTQGKYSNKVYFSVSSTKGKSFKLNFKTPVDLTNINKISFDLCAKNVKVYLGFKMPNGTQKEVEIPQSKSDNFKSYSLNVESYKTLDYILLIPQKTQGYIWIDNLKGNVVNLPPVEAINQYVAKFDSKLAKSSVILLTKSFESLPSDTKKKVESNLGSYLKCYNLEKGNPPYEKNEKFNIVFLRTKSGSILDFSFYQWIRIKNLSAEKKPLIVVLDIPFESLKQNEKDILIRLLKSRKAPSMIICTTSDYTRVERYDTLYIGYASSNDLLAKSSTKSVNLACDVEKGYIYLARGY | failed
MVAQNSVVVIGASGFGRESLDVLEAMKEAGHSLEIIGVVDDNPAAINLQRLAERKIEYLGTLKEWIEGSPKSCKYVLAIGNPTIRHKLSALLDKSGFDAFTAVHPSAVIGSQVVFGSGAVVCSGAVISTNVRLGVHVHINPNVTIGHDSILEDYVSINPAATISGEVLIMEETLIGAAATVLQGLTIGNRSLVGASSCVTKDISAGKVVKGIPARLEHHHHHH | not failed
VARTAEEQANHDLVIEMYNKVLIAMDSSAVDRYIAPGYVQHSSLAEPSVEALKGFLDRVRAESPDARQTIHRSFVDGDHVITHTHVERWPGDAGLAVVDIFRVEGGMIVEHWDVIQDVPANPVNPNSMF | not failed
MTEQERLELEAAAFRRLVAHLDSRKDVQNIDLMNLSGFCRNCLSKWYKAAADEKHIDITLDDAREVVYGMPYSEWKANYQKEASAEQQAAFVKESKHD | not failed
MTQDGTNILILGSDQRVTQGSTDARTDTIMVVNVGNHAKKIKMVSFMRDTLINIPGYSYNDNSYDLKLNSAFNLGEQEDHHGAEYVRRALKHNFDIDIKYYVMVDFETFAEAIDTLFPNGVKIDAKFATVGGVAVDSVEVPDDLRMKNGVVPNQTIEVGEQRMDGRTLLNYARFRKDDEGDFGRTVRQQQVMSAVMSQIKDPTKLFTGSAAIGKIYALTSTNVSFPFVVKNGVSVLGSGKNGVEHVTIPENGDWVDEYDMYGGQALYIDFDKYQKTLAKLGLRLEHHHHHH | not failed
HSHSDKHPVTWQPSKDGDRLIGRILLNKRLKDGSVPRDSGAMLGLKVVGGKMTESGRLCAFITKVKKGSLADTVGHLRPGDEVLEWNGRLLQGATFEEVYNIILESKPEPQVELVVSR | not failed
MYFCGIQNSTRTKGMNKAKSTMKLFGLIGLLILWNCSCVDRHRSHALCEQSLIDSLEVRAQDSLFSNLPYSRSLLRNAMRQAQDSMSYYRLMGLYGKTFFISSDFDSILYYNRPVKEYDKRAAACPRWNDVLSDVYNIEGNVWMQLNQPDSAVAYYEKSYAYRLKGEKGHLLSDICMNLADAHLHRGELAHTASYYRKALFICDSLHLSEHSKFPVYCGLGQTYMDLRDFDLSNHYYELAGQFFDEMTVSEKWVYLNNRGNHYYYKKDYQEALVYMRQAAELIADYPQMVFESNLSKVNLGDLYLLTNRLDSAENNLNEGYRYFSEIKNNSAMHYIETLMIELFLKKGNIARAREMIARTASTGHVDANMLTIRNQYLQHYYEKAGDYRNAYEYLKRDYQLNDSIRSERIRTRVAELDMRYRQDTIVLRKEMQIQRQAGEVRVLKLSMYIWVLVCLLLAAGTVVIIWYMRKKREFLRERFFQQINRVRMENLRSRISPHFTFNVLGREINQFNGSEEVKNNLMELVKYLRRSLELTEKLSVSLQDELDFVQSYIGLESGRVGEDFTASVVVEEGLDAKSIMIPSMIVQIPVENAIKHGLAGKDGEKELTIRISREGKGVRIVICDNGRGYLPQVASSTRGTGTGLKVLYQTIQLLNTKNKNEKIRFNIGNRNDGQTGTQVSVYIPFHFSYDL | failed
MIEGKTLVVNPFIGGSAKNITDEQYISILKKIKEKMPDLNIIITSYTTDEERTEKLCKDIGKDKIFAFSNGASILNTASIIDRADVYFGASTGPTHIAGALGKKIVAIYPHKKTQSPTRWGVLGNSNVRYIIPDENNPNEDYKLEHHHHHH | failed
MLPPYNYMDNGTLKGISIDLLEAITEKMGKKVTREEIHLVSWTEGYQAALTRNNTVLFVTARTPEREQSFKWVGPIYSDKYVLFAKRDPGVTIDGPEDLKEYRIGVISDDLEHHHHHH | failed
